# Reference: US20190263905A1 (DINONA, published 2019)
# Positions count from the first letter of the chain named.
# T1: Antigen CD66c (CEACAM6; Sino Biological, Inc.) (UniProt P40199 35-320)
# T1 construct: Bought antigen coated on the ELISA plate; construct not described; also called CD66c antigen; CECACAM6
# T1 sequence (looked up): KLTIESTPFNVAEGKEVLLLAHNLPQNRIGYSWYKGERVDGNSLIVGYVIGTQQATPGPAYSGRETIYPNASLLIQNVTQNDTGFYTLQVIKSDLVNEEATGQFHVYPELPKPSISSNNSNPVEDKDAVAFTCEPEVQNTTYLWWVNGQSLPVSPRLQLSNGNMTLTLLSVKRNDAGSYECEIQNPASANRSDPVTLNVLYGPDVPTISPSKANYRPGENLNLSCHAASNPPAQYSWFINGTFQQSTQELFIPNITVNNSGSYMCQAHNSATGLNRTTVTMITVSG
# T2: CEACAM1 antigen (Sino Biological, Inc.) (UniProt P13688 35-428)
# T2 construct: Bought antigen coated on the ELISA plate; construct not described; also called CEACAM1 (CD66a) antigen; CD66a
# T2 sequence (looked up): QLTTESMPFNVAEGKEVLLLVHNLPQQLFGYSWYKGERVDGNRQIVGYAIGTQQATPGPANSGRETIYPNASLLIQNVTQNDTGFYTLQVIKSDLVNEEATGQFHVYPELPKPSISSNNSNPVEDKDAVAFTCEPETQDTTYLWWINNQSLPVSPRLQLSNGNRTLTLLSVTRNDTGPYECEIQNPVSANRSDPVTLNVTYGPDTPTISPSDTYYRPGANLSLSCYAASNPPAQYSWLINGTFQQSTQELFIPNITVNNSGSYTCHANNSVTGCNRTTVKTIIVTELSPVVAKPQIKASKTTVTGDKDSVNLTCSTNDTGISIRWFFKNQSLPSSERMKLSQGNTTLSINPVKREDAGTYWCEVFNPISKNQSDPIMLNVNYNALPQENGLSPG
# T3: CD66c (CEACAM6) on CD66c-positive A549 non-small-cell lung cancer cells (UniProt P40199 35-320, limits assumed)
# T3 construct: whole, on cells; also called CD66c antigen; NCA-90
# T3 sequence (looked up): T1 sequence (looked up)
# B1: recombinant humanized anti-CD66c antibody Protein ID 3058 (Vk8 + VH11) (antibody, human IgG1, V domains shown)
# VH: QVQLVQSGAEVKKPGASVKISCKASGYSFTDYTMHWVKQAPGQNLEWIGLINPFGGSTSYAQKFKGRVTMTRDTSTNTAYMELSRLRSDDTAVYYCVRGDPVRHYYALAYWGQGTLVTVSS
# VL: DIQMTQSPSTLSASVGDRVTITCRASENVYGTLNWYQRKPGKAPKLLIYGATNLADGMPSRFSGSGSGTEYTLTISSLQPDDFATYYCQNVLSAPYTFGGGTKLEIK
# notes: also called hu 3058; #86
# B2: recombinant humanized anti-CD66c antibody Protein ID 3007 (Vk7 + VH6) (antibody, human IgG1, V domains shown)
# VH: QVQLVQSGAEVKKPGASMKISCKASGYSFTDYTMNWVKQAPGQNLEWIGLINPFHGGTVSNQRFKVKATLTVDVSTNTAYMELSRLRSDDTAVYYCVRGDPVRHYYALAYWGQGTLVTVSS
# VL: B1 VL with R24G, M58V
# notes: also called hu 3007; #43
# B3: recombinant humanized anti-CD66c antibody Protein ID 3043 (Vk8 + VH6) (antibody, human IgG1, V domains shown)
# VH: B2 VH
# VL: B1 VL
# notes: also called hu 3043; #71
# B4: recombinant humanized anti-CD66c antibody Protein ID 2938 (Vk5 + VH7) (antibody, human IgG1, V domains shown)
# VH: B2 VH with K38R, N44G
# VL: B1 VL with R24G, N34A, M58V, T69R
# notes: also called hu 2938
# B5: anti-CD66c chimeric antibody 8F5 (antibody, human IgG1, V domains shown)
# VH: EVQLQQSGPELVKPGASMKISCKASGYSFTDYTMNWVKQSHGKNLEWIGLINPFHGGTVSNQRFKVKATLTVDVSSNTAYMELLSLTSDDSAVYYCVRGDPVRHYYALAYWGQGTSVTVSS
# VL: DIQMTQSPASLSASVGETVTITCGASENVYGTLNWYQRKQGKSPQLLIYGATNLADGMSSRFSGSGSGRQYSLKISSLHPDDVATYYCQNVLSAPYTFGGGTKLEII
# notes: also called chimeric 8F5 antibody; chi 8F5
# Target: T1, Antigen CD66c (CEACAM6; Sino …)
# Experiment: ELISA, coated CEACAM6 100 ng/well, antibody 0.51 ng/ml
# Description: (§1) Antigen CD66c (CEACAM6; Sino Biological, Inc.) and CEACAM1 antigen (Sino Biological, Inc.) were coated on a 96-well plate at 100 ng per well and then blocked. The primary antibody was diluted serially three fold from 10 ug/ml at initial concentration and was bound at 37° C. for 1 hour, and goat anti-Human Ig-HRP conjugate (Jackson ImmunoResearch) as a secondary antibody was diluted 1:10,000 and incubated at 37° C. for 30 minutes. The washing was carried out at three times between each step, and the TMB reaction was performed, stopped with 1N H₂SO₄ solution at the same amount of TMB solution (100 ul) and then OD value was measured at 450 nm.
# (§2) As a result of the experiment, the binding affinities to CD66c antigen of the five kinds of recombinant humanized antibodies selected from among 96 kinds of recombinant humanized antibodies are shown in FIG. 4a, Table 12, FIG. 4b and Table 13. FIG. 4a and Table 12 show the binding capacity of the antibodies to CECACAM6 CD66c) antigen, and FIG. 4b and Table 13 are the results for the CEACAM1 (CD66a) antigen.
row,Binder,OD 450 nm [OD]
1,B1,0.38
2,B2,0.64
3,B3,0.49
4,B4,0.36
5,B5,0.41

# Target: T2, CEACAM1 antigen (Sino Biological, Inc.)
# Experiment: ELISA, coated CEACAM1 100 ng/well, antibody 0.17 ng/ml
# Description: as §1, §2
row,Binder,OD 450 nm [OD]
1,B1,0.04
2,B2,0.09
3,B3,0.08
4,B4,0.04
5,B5,0.08

# Target: T2, CEACAM1 antigen (Sino Biological, Inc.)
# Experiment: ELISA, coated CEACAM1 100 ng/well, antibody 1.52 ng/ml
# Description: as §1, §2
row,Binder,OD 450 nm [OD]
1,B1,0.05
2,B2,0.18
3,B3,0.16
4,B4,0.05
5,B5,0.16

# Target: T2, CEACAM1 antigen (Sino Biological, Inc.)
# Experiment: ELISA, coated CEACAM1 100 ng/well, antibody 4.57 ng/ml
# Description: as §1, §2
row,Binder,OD 450 nm [OD]
1,B1,0.05
2,B2,0.27
3,B3,0.27
4,B4,0.05
5,B5,0.28

# Target: T1, Antigen CD66c (CEACAM6; Sino …)
# Experiment: ELISA, coated CEACAM6 100 ng/well, antibody 41.15 ng/ml
# Description: as §1, §2
row,Binder,OD 450 nm [OD]
1,B1,1.38
2,B2,2.17
3,B3,1.73
4,B4,1.72
5,B5,2.02

# Target: T2, CEACAM1 antigen (Sino Biological, Inc.)
# Experiment: ELISA, coated CEACAM1 100 ng/well, antibody 13.72 ng/ml
# Description: as §1, §2
row,Binder,OD 450 nm [OD]
1,B1,0.05
2,B2,0.46
3,B3,0.43
4,B4,0.06
5,B5,0.51

# Target: T2, CEACAM1 antigen (Sino Biological, Inc.)
# Experiment: ELISA, coated CEACAM1 100 ng/well, antibody 41.15 ng/ml
# Description: as §1, §2
row,Binder,OD 450 nm [OD]
1,B1,0.07
2,B2,0.66
3,B3,0.61
4,B4,0.07
5,B5,0.82

# Target: T1, Antigen CD66c (CEACAM6; Sino …)
# Experiment: ELISA, coated CEACAM6 100 ng/well, antibody 370.37 ng/ml
# Description: as §1, §2
row,Binder,OD 450 nm [OD]
1,B1,2.8
2,B2,3.16
3,B3,2.92
4,B4,3.08
5,B5,3.3

# Target: T2, CEACAM1 antigen (Sino Biological, Inc.)
# Experiment: ELISA, coated CEACAM1 100 ng/well, antibody 370.37 ng/ml
# Description: as §1, §2
row,Binder,OD 450 nm [OD]
1,B1,0.12
2,B2,0.92
3,B3,0.8
4,B4,0.14
5,B5,1.13

# Target: T2, CEACAM1 antigen (Sino Biological, Inc.)
# Experiment: ELISA, coated CEACAM1 100 ng/well, antibody 1111.11 ng/ml
# Description: as §1, §2
row,Binder,OD 450 nm [OD]
1,B1,0.19
2,B2,1.06
3,B3,1.17
4,B4,0.21
5,B5,1.21

# Target: T2, CEACAM1 antigen (Sino Biological, Inc.)
# Experiment: ELISA, coated CEACAM1 100 ng/well, antibody 3333.33 ng/ml
# Description: as §1, §2
row,Binder,OD 450 nm [OD]
1,B1,0.31
2,B2,1.15
3,B3,1.22
4,B4,0.27
5,B5,1.24

# Target: T2, CEACAM1 antigen (Sino Biological, Inc.)
# Experiment: ELISA, coated CEACAM1 100 ng/well, antibody 10000.00 ng/ml
# Description: as §1, §2
row,Binder,OD 450 nm [OD]
1,B1,0.42
2,B2,1.01
3,B3,0.91
4,B4,0.32
5,B5,1.21

# Target: T3, CD66c (CEACAM6) on CD66c-positive A549 …
# Experiment: flow cytometry on CD66c-positive A549 cells, mean fluorescence
# Description: (§3) Each expressed 96 recombinant humanized antibody was poured and reacted in a test tube containing the same amount ([…]) of CD66c-positive A549 non-small-cell lung cancer cell line at 4° C. for 30 minutes, washed with PBS, and treated with FITC-conjugated goat anti-Human IgG (DiNona Inc, Korea) was added and incubated at 4° C. for 15 minutes. After washing with PBS, the cells were analyzed with a flow cytometer (Stratedigm, S1000EXi) and the results are shown below.
# (§4) Among the 96 recombinant humanized antibody candidates, eight were firstly selected based on the degree of expression, the presence of aggregation, and the degree of cell binding (Table 9 and Table 10, FIGS. 3A to 3E).
row,Binder,Mean
1,B1,645
2,B2,565
3,B3,686
4,B4,611
5,B5,619

# Target: T3, CD66c (CEACAM6) on CD66c-positive A549 …
# Experiment: flow cytometry on CD66c-positive A549 cells, FITC anti-human IgG
# Description: as §3, §4
row,Binder,% gated [%]
1,B1,72
2,B2,71
3,B3,69
4,B4,71
5,B5,73
